Data taken from publication PMC6510816.

Key:
YAP [1] = molecular target: YAP (UniProt P46937); test: Flag-14-3-3ζ co-IP, YAP blot; settings: reference: Flag-14-3-3ζ wild type; sites S37
YAP [2] = molecular target: YAP (UniProt P46937); test: His-YAP Ni-NTA pull-down of Flag-14-3-3ζ IPs; settings: reference: wild type with rERK2; sites S37

binding against the reference (YAP [1]) | binding against the reference (YAP [2]) | Substance
stronger |  | 14-3-3ζ (from UniProt P63104) Flag-14-3-3ζ S37A
 | gained | 14-3-3ζ (from UniProt P63104) S37A with rERK2
